These results are taken from US20080261863A1, “Pegylation of Vasoactive Intestinal Peptide (Vip) / Pituitary Adenylate Cyclase Activating Peptide (Pacap) Receptor 2 (Vpac2) Agonists and Methods of Use” (priority 2004, published 2008).

This test has as its target VPAC2 receptor (human) (UniProt P41587). In words: cell-based or functional assay.

Chain of VPAC2 receptor (human) (P41587 24-438): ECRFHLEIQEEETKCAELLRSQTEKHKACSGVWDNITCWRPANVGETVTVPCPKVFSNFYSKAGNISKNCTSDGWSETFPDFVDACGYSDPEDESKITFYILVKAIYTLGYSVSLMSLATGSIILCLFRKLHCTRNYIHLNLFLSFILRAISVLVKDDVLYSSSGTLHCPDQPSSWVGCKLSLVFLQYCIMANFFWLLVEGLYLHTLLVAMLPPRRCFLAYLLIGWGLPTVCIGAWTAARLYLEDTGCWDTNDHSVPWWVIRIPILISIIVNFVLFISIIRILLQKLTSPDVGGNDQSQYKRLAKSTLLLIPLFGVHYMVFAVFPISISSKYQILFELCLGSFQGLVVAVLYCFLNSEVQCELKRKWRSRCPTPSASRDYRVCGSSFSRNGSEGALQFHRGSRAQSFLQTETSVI

For the substance “PACAP-27 (from UniProt P18509 132-158) (peptide)”, the EC50 (nM), cAMP SPA, VPAC2 agonist activity was determined as 0.09 nM.
